According to patent US20100119588A1:

These substances were tested against hemagglutinin H1 on influenza virus A/Puerto Rico/8/34 strain (H1N1) (influenza virus A/Puerto Rico/8/34 (H1N1)) (UniProt P03452) (assay: cell-based or functional assay).

Substance | IC50(µM), plaque assay, infection of MDCK cells [µM]
C18-s2(1-8) (C18-ARLPRTMV peptide amide) | 2.4
C18-s2(r1-4) (C18-PLRA peptide amide) | 0.41
C18-s2(r1-5) (C18-RPLRA peptide amide) | 0.55
C18-s2(1-5) (C18-ARLPR peptide amide) | 0.35

Biological target: hemagglutinin H1 on influenza virus A/Puerto Rico/8/34 strain (H1N1) (influenza virus A/Puerto Rico/8/34 (H1N1)) (UniProt P03452)
Experiment: cell-based or functional assay
Remark: another data set of the same source

Substance | IC50(µM), plaque assay, infection of MDCK cells [µM]
C18-s2(1-4) (C18-ARLP peptide amide) | 0.9
C18-s2(2-8) (C18-RLPRTMV peptide amide) | 9.2
C18-s2(1-6) (C18-ARLPRT peptide amide) | 3.5
C18-s2(5-11) (C18-RTMVHPK peptide amide) | 11
C18-s2(1-2) (C18-AR peptide amide) | > 100
C18-s2(1-3) (C18-ARL peptide amide) | > 100
C18-s2(3-8) (C18-LPRTMV peptide amide) | > 100
C18-s2(8-15) (C18-VHPKPAQP peptide amide) | 59
C18-s2(r1-8) (C18-VMTRPLRA peptide amide) | 93
C18-s2(4-8) (C18-PRTMV peptide amide) | > 100
C18-s2(1-7) (C18-ARLPRTM peptide amide) | 7.1
C18-s2(1-5) (C18-ARLPR peptide amide) | 3.1
